Laboratory results published in paper doi:10.1101/2025.09.05.674548.

Target: T.ni-cell expression optimized human P2X4 construct (P2X4^T.ni) (human) (UniProt Q99571)

- stoichiometry N: 3
Substance: T.ni-cell expression optimized human P2X4 construct (P2X4^T.ni) (from UniProt Q99571-1 1-388) (receptor)
